Results as given in patent publication US20100074886A1, “CCR2 ANTAGONISTS FOR TREATMENT OF FIBROSIS” (priority 2006, published 2010).

Target: Human MCP-1 (CCL2), monocyte chemoattractant protein 1 (human), P13500
Test: cell-based or functional assay

Human MCP-1 (CCL2), monocyte chemoattractant protein 1 (human), P13500, sequence (P13500 24-99): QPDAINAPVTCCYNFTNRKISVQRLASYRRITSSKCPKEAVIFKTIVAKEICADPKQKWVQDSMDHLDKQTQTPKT

CCL2 gene expression in fibrotic cell line 126, percent of untreated cell level (percent of untreated cell level): 2
CXCL5 gene expression in fibrotic cell line 126, percent of untreated cell level (percent of untreated cell level): < 1
CXCL5 protein level in supernatant of fibrotic cell line 126 with Anti-CCL2: 32
CXCL5 protein, percent of untreated (percent of untreated): < 1
G-CSF protein level in supernatant of fibrotic cell line 126 with Anti-CCL2: 1
G-CSF protein, percent of untreated (percent of untreated): < 1
IL6 gene expression in fibrotic cell line 126, percent of untreated cell level (percent of untreated cell level): < 1
IL6 protein level in supernatant of fibrotic cell line 126 with Anti-CCL2: 40
IL6 protein, percent of untreated (percent of untreated): < 1
IL8 protein level in supernatant of fibrotic cell line 126 with Anti-CCL2: 308
IL8 protein, percent of untreated (percent of untreated): 2
IL13Ra2 gene expression in fibrotic cell line 126, percent of untreated cell level (percent of untreated cell level): 5
VEGF protein level in supernatant of fibrotic cell line 126 with Anti-CCL2: 175
VEGF protein, percent of untreated (percent of untreated): 23
fold reduction of G-CSF protein with CNTO 888: 6800 fold
fold reduction of VEGF protein with CNTO 888: 4 fold
B1: CCL2-neutralizing antibody CNTO888 (antibody, V domains shown)
VH: QVQLVQSGAEVKKPGSSVKVSCKASGGTFSSYGISWVRQAPGQGLEWMGGIIPIFGTANYAQKFQGRVTITADESTSTAYMELSSLRSEDTAVYYCARYDGIYGELDFWGQGTLVTVSS
VL: not shown
modifications: not checked
